The results in this text go back to patent publication US20230051715A1 (MABWELL THERAPEUTICS, published 2023).

In the assay the target is T1, active human C1s (CompTech A104 C1s Enzyme) (human, UniProt P09871 16-688).
T1 construct: also called human active C1s; active C1s protein
T1 sequence (looked up): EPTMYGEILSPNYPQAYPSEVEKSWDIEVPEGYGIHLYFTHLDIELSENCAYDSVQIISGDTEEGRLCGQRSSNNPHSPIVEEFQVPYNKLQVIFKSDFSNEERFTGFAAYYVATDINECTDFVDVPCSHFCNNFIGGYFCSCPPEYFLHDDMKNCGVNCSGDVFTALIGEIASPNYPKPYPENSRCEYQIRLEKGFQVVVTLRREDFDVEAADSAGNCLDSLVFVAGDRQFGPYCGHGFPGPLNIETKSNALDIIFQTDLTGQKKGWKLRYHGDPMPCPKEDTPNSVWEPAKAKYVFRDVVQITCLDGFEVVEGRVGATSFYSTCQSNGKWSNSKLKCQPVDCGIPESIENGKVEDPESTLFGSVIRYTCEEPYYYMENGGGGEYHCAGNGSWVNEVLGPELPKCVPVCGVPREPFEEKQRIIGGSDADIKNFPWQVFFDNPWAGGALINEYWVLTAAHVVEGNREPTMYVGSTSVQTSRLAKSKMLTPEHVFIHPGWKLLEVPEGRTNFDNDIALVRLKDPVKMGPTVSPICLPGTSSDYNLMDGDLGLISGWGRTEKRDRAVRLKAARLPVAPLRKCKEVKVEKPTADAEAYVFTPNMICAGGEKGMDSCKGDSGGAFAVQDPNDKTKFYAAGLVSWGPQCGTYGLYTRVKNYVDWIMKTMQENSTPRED
Put plainly: BLI (Octet RED96e), antibody on AHC biosensor; HuC1s Form: Active; R^2 0.9990. The protocol: Bio-Layer Interferometry technology was used for anti-C1s antibody affinity measurement and binding kinetics determinations with OCTET® RED96e system (Sartorius AG). Pre-hydrated Anti-Human IgG Fc Capture (AHC) biosensors were first equilibrated in 1×KB (Kinetic Buffer, 1×PBS pH 7.4+0.02% Tween-20+0.1% BSA) for 120 sec for the first baseline, followed by loading with […] anti-C1s antibody (2-7, FIG. 3A; 2-8, FIG. 3B; hz2-7(H1L2), FIG. 3C; hz2-8(H1L2 G80A/T82A, FIG. 3D) onto AHC biosensors for 240 sec. Then, the second baseline signal was established for 120 sec before association with various concentrations of active human C1s (CompTech A104) for 240-360 sec. At last, analyte was dissociated in 1×KB for 360 sec. Anti-C1s antibodies 2-7 and 2-8 were also analyzed against human C1s proenzyme (CompTech A103) (data not shown). Data analysis was carried out using OCTET® Data Analysis HT Software (Sartorius AG). KD, kₒₙ, koff and R² values were calculated for each antibody and target combination, as summarized in FIG. 3E showing high affinity binding with KD values in the low nanomolar to picomolar range.

B1: Anti-C1s antibody 2-8 (antibody, V domains shown)
VH: EVQLQQSGAELVRPGALVKLSCKASGFNIKEYYMHWVKQRPEQGLEWIGWIDPENGDTIYDPKFQGKASITADTSSNTAYLQLSSLTSEDTAVYYCARSRLFFAYWGQGTLVTVSA
VL: DIVMTQSHKFMSTSVGDRVSFTCKASQDVRTAVDWYQQKPGQSPKLLIYSASYRYTGVPDRFTGTGSGTDFTFTISSVQAEDLAVYFCQQQYTTPYTFGGGTKLEIKT
notes: the HC/LC entries may hold it too; also called clone 2-8
Broadly, the Kd is the concentration at which binding is half-saturated. The term koff denotes the first-order rate constant of dissociation. Usually kon stands for a measure of how fast the partners come together. For B1, the Kd came out at 0.49 nM, the koff amounted to 0.00012 s⁻¹ and the kon came to 250000 M⁻¹ s⁻¹.
